B1: Ovalbumin, P01012 (parent)
chain: MGSIGAASMEFCFDVFKELKVHHANENIFYCPIAIMSALAMVYLGAKDSTRTQINKVVRFDKLPGFGDSIEAQCGTSVNVHSSLRDILNQITKPNDVYSFSLASRLYAEERYPILPEYLQCVKELYRGGLEPINFQTAADQARELINSWVESQTNGIIRNVLQPSSVDSQTAMVLVNAIVFKGLWEKAFKDEDTQAMPFRVTEQESKPVQMMYQIGLFRVASMASEKMKILELPFASGTMSMLVLLPDEVSGLEQLESIINFEKLTEWTSSNVMEERKIKVYLPRMKMEEKYNLTSVLMAMGITDVFSSSANLSGISSAESLKISQAVHAAHAEINEAGREVVGSAEAGVDAASVSEEFRADHPFLFCIKHIATNAVLFFGRCVSP

Variants of: B1
Conditions: Gallus gallus, Thermal, CD, structure 1UHG, whole UniProt chain shown

Variant | Tm (pH 7, Phosphate 10 mM) | change of melting temperature, mutant - wild type (higher = more stable) (pH 7, Phosphate 10 mM) | Tm (pH 10, Glycine-NaOH 0.1 M) | change of melting temperature, mutant - wild type (higher = more stable) (pH 10, Glycine-NaOH 0.1 M)
R143A | 69.8 °C | 0 °C | 75.6 °C | -3.3 °C
R143A S321A | 70 °C | 0.2 °C | 71.2 °C | -7.7 °C
S165A | 70.8 °C | 1 °C | 75.6 °C | -3.3 °C
S165A S321A | 71.3 °C | 1.5 °C | 71.8 °C | -7.1 °C
S237A | 70.4 °C | 0.6 °C | 79.3 °C | 0.4 °C
S321A | 69.3 °C | -0.5 °C | – | –

Reference: FireProtDB (doi:10.1002/pro.398)
